Laboratory results published in US20180162944A1 (WUXI BIOLOGICS SHANGHAI, published 2018).
Where a chain is given by its changes, count along the chain named.

B1: 2.74.15.hAb8 (antibody, V domains shown)
VH: QVQLQESGPGLVKPSETLSLTCTVSGYSITSGYIWHWIRQPPGKGLEWIGYIHYSGTTDFNPSLESRVTISVDTSKNQFSLKLSSVTAADTAVYYCAREGRSYGGFAYWGQGTLVTVSS
VL: DIQMTQSPSSLSASVGDRVTITCKASQSVSNGVAWYQQKPGKVPKLLIYYASNRFTGVPSRFSGSGSGTDFTLTISSLQPEDVATYYCQQDYSSPFTFGQGTKLEIK
notes: Humanized antibody with a human constant region of IgG4 isotype
B2: 2.74.15.hAb4 (antibody, V domains shown)
VH: B1 VH with S119A
VL: B1 VL with D1S, I2F, Q3V, Q100S, K103E
notes: as for B1
B3: 2.74.15.hAb5 (antibody, V domains shown)
VH: B1 VH with S25T, P42A
VL: B1 VL with M4L, S10F, V43A, D70E, V83F
notes: as for B1
B4: 2.74.15.hAb6 (antibody, V domains shown)
VH: B1 VH with S25T, P42A
VL: B1 VL
notes: as for B1
B5: 2.74.15.hAb7 (antibody, V domains shown)
VH: B1 VH
VL: B1 VL with M4L, S10F, V43A, D70E, V83F
notes: as for B1

Tests used:
murine PD-L1 [1] = molecular target: T1, murine PD-L1 (mouse, UniProt Q9EP73 19-239, limits assumed); assay: ELISA or FACS
T1 construct: also called mouse PD-L1
T1 sequence (Q9EP73 19-239 limits assumed): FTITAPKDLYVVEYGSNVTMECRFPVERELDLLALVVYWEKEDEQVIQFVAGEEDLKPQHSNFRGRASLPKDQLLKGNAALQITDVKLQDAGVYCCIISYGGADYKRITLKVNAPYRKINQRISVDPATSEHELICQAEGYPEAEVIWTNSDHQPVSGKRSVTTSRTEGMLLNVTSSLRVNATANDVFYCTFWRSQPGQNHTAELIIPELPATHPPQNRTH

[2] = molecular target: T2, PD-L2 expressed on transfected CHO cells (Homo sapiens (Human), UniProt Q9BQ51 20-273); assay: FACS, PD-L2 transfected CHO-K1 cells, single staining, concentration not shown
T2 sequence: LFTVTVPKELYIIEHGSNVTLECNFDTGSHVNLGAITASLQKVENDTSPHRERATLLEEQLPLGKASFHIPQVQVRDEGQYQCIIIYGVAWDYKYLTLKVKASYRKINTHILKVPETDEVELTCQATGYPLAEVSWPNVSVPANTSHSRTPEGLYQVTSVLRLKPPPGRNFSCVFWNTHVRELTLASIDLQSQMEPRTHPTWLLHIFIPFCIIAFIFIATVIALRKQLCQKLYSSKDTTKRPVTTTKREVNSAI
Method: 3.8. Cross-family binding assay by FACS: to examine the cross-family binding activity of the humanized antibodies, cells lines that express PD-L2 were stained with the humanized antibodies, followed by 2nd antibody staining with FITC conjugated goat anti-human IgG Fc. PD-L1 expressing cells were used as positive control. Corresponding parental cell lines were used as negative controls. The stained cells were analyzed by using a BD Biosciences FACSCanto II and FlowJo Version software.
CHO cells transfected with PD-L1 or PD-L2 were stained with humanized PD-L1 antibodies and analysis by FACS.

[3] = molecular target: T3, human PD-L1 expressed on cells (CHO / CHO-K1 cells transfected with full-length human PD-L1); native PD-L1 on … (human, UniProt Q9NZQ7 19-290); assay: FACS, CHO cells transfected with full-length human PD-L1, MFI against antibody concentration
T3 construct: whole, on cells; also called PD-L1 expressing CHO cell; PD-L1 transfected CHO cells
T3 sequence (Q9NZQ7 19-290): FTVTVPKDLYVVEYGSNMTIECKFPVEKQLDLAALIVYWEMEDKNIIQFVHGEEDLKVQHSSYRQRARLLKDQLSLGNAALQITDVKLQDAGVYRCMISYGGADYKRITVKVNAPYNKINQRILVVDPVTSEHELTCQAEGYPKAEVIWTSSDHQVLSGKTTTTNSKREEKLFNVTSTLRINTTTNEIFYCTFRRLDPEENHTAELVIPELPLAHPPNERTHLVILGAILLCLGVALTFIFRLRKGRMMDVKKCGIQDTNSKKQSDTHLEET

recombinant human PD-L1 = molecular target: T4, recombinant human PD-L1 (human, UniProt Q9NZQ7 19-238); assay: SPR (ProteOn XPR36), antibody captured on Protein A, human PD-L1 as analyte, 1:1 Langmuir fit
T4 construct: the whole natural entry is named
T4 sequence (Q9NZQ7 19-238 limits assumed): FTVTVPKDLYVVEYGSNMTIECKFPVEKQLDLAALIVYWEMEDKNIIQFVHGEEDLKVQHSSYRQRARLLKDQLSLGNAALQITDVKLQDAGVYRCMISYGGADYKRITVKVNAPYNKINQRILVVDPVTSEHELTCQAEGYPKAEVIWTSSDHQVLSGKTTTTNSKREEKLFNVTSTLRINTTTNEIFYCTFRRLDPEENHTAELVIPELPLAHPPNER
Method: 3.2. […] Protein A protein (Sigma) was immobilized to a GLM sensor chip (Bio-Rad) through amine coupling. Purified antibodies were flowed over the sensor chip and captured by the Protein A. The chip was rotated 90° and washed with running buffer (1×PBS/0.01% Tween20, Bio-Rad) until the baseline is stable. Five concentrations of human PD-L1 and running buffer were flowed against the antibody flow cell at a flow rate 100 μL/min for an association phase of 240s, followed by 600s dissociation. The chip was regenerated with pH 1.7 H₃PO₄ after each run. The association and dissociation curve was fit to a 1:1 Langmuir binding model using ProteOn software.

cynomolgus monkey PD-L1 [4] = molecular target: T5, cynomolgus monkey PD-L1 (cynomolgus monkey, UniProt G7PSE7 19-238); assay: ELISA, cynomolgus PD-L1 coated on the plate, OD450 against antibody concentration; lower panel
T5 construct: also called cyno PD-L1
T5 sequence (G7PSE7 entry or part of it limits assumed): as the sequence (Q9NZQ7 19-238 limits assumed) above, with A33T, A34S, S62N, R68Q, Q82R, F173L, T185A, T192I, H215L counted along it
Method: (§1) 3.7. Cross-species binding assay: the cross-reactivity of the Ab to cynomolgus and murine PD-L1 was measured by ELISA. Human, cyno and mouse PD-L1 were coated on ELISA plates, respectively. After blocking, the humanized antibodies were added into the plate and incubated at room temperature for at least 2 hours. The binding of the antibodies to the coated antigens was detected by using goat anti-human IgG Fc-HRP. The color reaction was developed using TMB substrate and stopped by 2M HCl. The ELISA plates were analyzed at 450 nm using a Molecular Device M5e microplate reader.

[5] = molecular target: T3, human PD-L1 expressed on cells (CHO / …); assay: FACS, native PD-L1 on human monocyte-derived dendritic cells, MFI against antibody concentration
[6] = molecular target: T3, human PD-L1 expressed on cells (CHO / …); assay: FACS competition on human PD-L1 expressing CHO cells; blocked ligand: mouse Fc-tagged human PD-1; bottom panel
murine PD-L1 [7] = molecular target: T1, murine PD-L1; assay: ELISA, antigen coated on plate
Method: as §1

cynomolgus monkey PD-L1 [8] = molecular target: T5, cynomolgus monkey PD-L1; assay: ELISA, cynomolgus PD-L1 coated on the plate, OD450 against antibody concentration; upper panel
Method: as §1

[9] = molecular target: T3, human PD-L1 expressed on cells (CHO / …); assay: FACS competition on human PD-L1 expressing CHO cells; blocked ligand: mouse Fc-tagged human PD-1; top panel
[10] = molecular target: T3, human PD-L1 expressed on cells (CHO / …); assay: FACS competition on human PD-L1 expressing CHO cells; blocked ligand: mouse Fc-tagged human PD-1; middle panel

Binder	binding result (murine PD-L1 [1])	binding result [2]	EC50 [3] [nM]	Kd (recombinant human PD-L1) [nM]	koff (recombinant human PD-L1) [s⁻¹]	kon (recombinant human PD-L1) [M⁻¹ s⁻¹]	EC50 (cynomolgus monkey PD-L1 [4]) [nM]	EC50 [5] [nM]	IC50 [6] [nM]	binding result (murine PD-L1 [7])	EC50 (cynomolgus monkey PD-L1 [8]) [nM]	IC50 [9] [nM]	IC50 [10] [nM]
B1	no binding	no binding	1.17	0.0676	5.48e-05	811000	0.0524	2.52	0.196				
B2		no binding	1.53	0.0389	2.83e-05	728000		1.82		no binding	0.00577	0.622	
B3	no binding	no binding	1.11	0.106	0.000135	1.27e+06		2			0.026		0.15
B4	no binding	no binding	1.08	0.149	0.000172	1.16e+06		2.39			0.0238		0.157
B5	no binding	no binding	1.18	0.155	0.000146	938000	0.000721	2.53	0.199				
